Data from patent publication US20080166345A1, “MEDICAMENTS COMPRISING GENE RECOMBINANT ANTIBODY AGAINST GANGLIOSIDE GD3” (KYOWA HAKKO KOGYO CO., LTD., priority 2001, published 2008).

Tests used:
[1] = system: human melanoma culture cell line SK-MEL-28; assay: In vitro cytotoxic activity (CDC activity), 51Cr release; type: cell-based; details: antibody 0.05 to 50 μg/ml, human complement; FIG. 24
Procedure: (§1) Each of human melanoma culture cell lines, G-361 (ATCC CRL 1424) and SK-MEL-28 (ATCC HTB72), was cultured in RPMI1640-FBS(10) medium and adjusted to 5×10^6 cells, and the cells were isotope-labeled by adding 3.7 MBq equivalent of a radioactive substance Na2^51CrO4 and carrying out the reaction at 37° C. for 1 hour. After the reaction, the cells were washed three times by their suspension in RPMI1640-FBS(10) medium and centrifugation, re-suspended in the medium and then incubated in ice at 4° C. for 30 minutes to thereby spontaneously release the radioactive substance. […]
(§2) To each well of a 96 well U bottom plate (manufactured by Falcon), 50 μl of the target cell suspension prepared in “a.” was added (5×10^4 cells/well), and then the anti-GD3 chimeric antibody KM871 or the anti-GD3 CDR-grafted antibody, KM8869, KM8870 or KM8871, was added to give a final concentration of 0.05 to 50 μg/ml and allowed to react at room temperature for 30 minutes. […] After centrifugation, the amount of ^51Cr released in the supernatant was measured by a γ-counter. The amount of the spontaneously dissociated ^51Cr was calculated by carrying out the same procedure using the medium alone instead of the antibody solution and complement solution and measuring the amount of ^51Cr in the supernatant. […] The CDC activity was calculated by the following equation.

[2] = system: human melanoma culture cell line G-361; assay: as above; type: cell-based; details: antibody 0.05 to 50 μg/ml, human complement; FIG. 24
Procedure: as §1, §2

[3] = Reactivity of purified antibodies with various gangliosides (ELISA); type: binding; details: antibody 10 μg/ml, 20 pmol/well; FIG. 22
Procedure: Each ganglioside (2 nmol) was dissolved in […] of ethanol solution containing 10 μg of dipalmitoylphosphatidylcholine (manufactured by SIGMA) and 5 μg of cholesterol (manufactured by SIGMA). In each well of a 96 well plate for ELISA (manufactured by Greiner), 20 μl of the solution (becomes 20 pmol/well) or 20 μl of the solution diluted with ethanol was respectively dispensed, followed by air-drying, and then PBS containing 1% BSA (hereinafter referred to as “1% BSA-PBS”) was added in 100 μl/well and allowed to react at room temperature for 1 hour to thereby block remaining active groups. After discarding 1% BSA-PBS, culture supernatants of transformants or diluted solutions of humanized antibodies were added in 50 μl/well and allowed to react at room temperature for 1 hour. […] After the reaction and subsequent washing with Tween-PBS, an ABTS substrate solution (a solution prepared by dissolving 0.55 g of 2,2′-azinobis(3-ethylbenzothiazoline-6-sulfonic acid) in 1 L of 0.1 M citrate buffer (pH 4.2) and adding 1 μl/ml hydrogen peroxide just before the use) was added in 50 μl/well for color development and the absorbance at 415 nm (hereinafter referred to as “OD415”) was measured.
Reactivity of purified anti-GD3 CDR-grafted antibodies KM8869, KM8870 and KM8871 with GD3 (manufactured by DIA-IATRON) was measured by the ELISA shown in the item 2 of Reference Example. […]

binding to ganglioside [3]: did not bind
B1: KM871: anti-GD3 human chimeric antibody; VH SEQ ID NO:49, VL SEQ ID NO:50, human IgG1 and κ C regions (antibody, listed as Mus musculus, V domains shown)
VH: EVTLVESGGDFVKPGGSLKVSCAASGFAFSHYAMSWVRQTPAKRLEWVAYISSGGSGTYYSDSVKGRFTISRDNAKNTLYLQMRSLRSEDSAMYFCTRVKLGTYYFDSWGQGTTLTVSS
VL: DIQMTQTASSLPASLGDRVTISCSASQDISNYLNWYQQKPDGTVKLLIFYSSNLHSGVPSRFSGGGSGTDYSLTISNLEPEDIATYFCHQYSKLPWTFGGGTKLEIKR
modifications: human IgG1 and kappa constant regions
CDC activity [1]: show the CDC activity | CDC activity [2]: remarkably strong cytotoxic activity
